Target: receptor for UNQ733 on the surface of lymphoma cell lines and B cells (unidentified) (human)
Test: flow cytometry on purified human peripheral blood B cells, 48 h with anti-CD40 and rIL-4

His8-tagged UNQ733 polypeptide (ligand)
fold increase of binding on B cells stimulated with anti-CD40 and IL-4 against resting B cells: 2 to 5 fold

Source: patent US20090054631A1
